From a protein production outcome set (Wang et al. 2014)

Assay: label from the status in PepcDB records

Sequence | protein production
MNLTFDYTKEPSRDVFCIDVKSFYASVECVERGLDPLKTMLVVMSNSENSGGLVLAASPMAKKVLGISNVTRKNEVPDHPNLIIVPPRMKLYMKKNQEINNLYKRFVSDEDHSVFSVDESFLDVTASLTYFKCDTAYKLAKIIQRVIYNHMGLYVTIGIGENPLLAKLALDNEAKNAPGFVAEWRYEDVPEKVWPISPLTEFCGIGNRMAARLKKLGIRSIYDLAHIEPYMLKERFGIMGLQLYAHSWGIDRSFLGQKAGRPTEKSFGNSQVLPKDYANKEQIKLVLKELSDQVASRLRMASCQTTCVSLFVGYSKGQTDKYGQTGWRRQMKVEPSNNTKVLTEHVLRLFEENYAPGVDVRNLGVSYGRLVWNKNLQLDLFSVPEEQIHETDMYFLIDKIRQKFGFKALIHASSLMEGATAISRASLVGGHAGGTVGLGTTK | failed
MNLTFLGLCIACMGVSVGEGLLMNGLFKSVARQPDMLSEFRSLMFLGVAFIEGTFFVTLVFSFIIK | failed
MNLTYLFVLIWLAFLISSGVMLFSRGFLLARVSKTETSTCRRLSTNPNAEYVLTDEVVNEIFKDVNASSNLCLPQKSKVIVLVVDALKYEFGLYRANATDPLPYENKLVVLQELLQQNPDHARLMRFRADPPTTTLQRLKGLTTGSLPTFIDIGSNFASPEINEDNIIDQIVKNDLPVVFLGDSTWTDLYPHRFKRSYSYPSFDIFDLDSVDNEILKHLPKELESKDWQVLVAHFLGVDHCGHKHGPMHEEMARKLGEMNEVIRSVVAAMDNDTTLLVMGDHGMTASGDHGGDTDDETNALLFAYSKQHRFYGNDSGSDSEMLQQIDLVPTLATILGVPIPYSNLGLVNFNIVPDLRVPHLNKFQTLLLHSWQNAQQIYRYFFQYALENKRTFNVEQMDHLETEFILLTHRVQTVYNEVAFKSFVRDLNTNLRDILGTCREIWVRFDPTQMSQGLLFTFLPLFFIFLVVNNSRPADFPHIFKAKEVFYVYLINLAAGVFGYRYFKTFSFKTEEQGVIFFTAISSAVILAFHTLRHWTSIATNWSAVKRFGHMPTRLLLFGSMAVFFSNSFVIQEAKILSYLLAAAILLLSHELLRLSARLDFRTKFKASQFLRSTALRLILASVLAICLIRFAYTLFRCREEQGNCSDFVNTGGAGFSLKKPGTGKTYILAVVVLVVYTTLTRLYLRSCGNLTGNLPNVLLARYGPTVASICAGGHILLANSSIKHIQRTHIDAMALVIYGLLLVQIIVLSWAPLMTFVLPPRSSHTVTINGNESIVPEIFRKMKRMYEGDDDERRSHIPVVYGLATVYSSIVIAFGVFLALVMIVLLEPRASIGLVVCVAVGAILLSVHSILRYRTATSFESCVQPTFTALVGWFLLAHFCFFATSHQTTLSQIEWRAAFVGRTTGIGQSNLVSGALVILNTFCGPIFFFCMYSLLSTETFSLFALFPNLIRSCRSGGKVDASTSMSDLANEAVGFDMTRGELSLYEYEDVFLGTGFKLATQFFMLQGLKIFCAMLACTIHCRHLMVWKIFAPRFIYEALATFVSLPALIVGYLLVLRIHRGVDTLIKRINKAKVH | failed
MNMGMVTLAAIRSVPMATTYIRGGTVVSPTGCQDLDVLIDGERIAALVDPELAPFDDPDRTFDHVLEAKGKYVIPGGVDAHTHMEMPFGGTVASDTFETGTRAAAFGGTTTIIDFAIQRQGERVQDTLAAWHAKARGNCAVDYGFHQILGGVDTDALKAMDELVAEGVTSFKLFMAYPGVYYSDDGQILRAMQQCAGNGALTMMHAENGIAIDQLVAQHIERGETSPYYHGVSRPWELEEEATHRAIMLAKITGAPLYVVHVSAKQAMEQIAGARGSGANVFAETCPQYLYLSLEEQLAAPGFEGAKWVCSTPLRSHEEGHQEELWRYIRTGDVATVSTDHCPFCFKGQKEMGLGDFSKIPNGMSGVEHRIDLMYQGVVNGKLSLQRWVDVCATTPARMFGLYPRKGIVSPGADADVVIYDPDGRTSIGFEKNHHSNVDHSTWEGFEVEGCVQTVLSRGTIVVDRGRYLGRKGHGVFLKRGLSQYLI | failed
MNMKLQVTVLKGDVIENGYEVVDAVEGNGNNDDSGDDGGEDEEGSADDAEGKETKKGPVSDPDLNGEAGDNDDEPEGDDGNDDEDDDNHENDDEDEEEDEDENDDGGEEDDDEDAEVEEEEEEEDEDDEEALQPPKKRKK | failed
MNMQKCDSTQEQQLTFEPRGHQLTNINVWTPDSQWLAYDVRPNSSTFSGLTIERVNCITGDIEVIYRSQHGAHVGVVTVSPDMPARYVFIHGPEHPDNHWHYDFHHRRGVIVTEPDRELAVTLDAMDITPPFTPGALRGGSHVHVFSPDGSRLSFTYNDHVLHEQDPALDCRNVAVALPLHGVNPPKQHPREYDGSHFCVLVTRTTPTPLAGSDQISRAYEEGWIGSQGYLKMDGTRQRWALAFIGDTLSAQGEKIPEIFIADLPEHERDYARAGEEPLEGTQTTMPAPPAGVRQRRLTFTAERHFPGLATSPRHWLRTSPDGSAIACLMKDDEGVVQLWLVSPNGGEPRQLTFTEGGIQSAFSWHPQGHSLVFVCDNSVMQCDSTTGQLWRLTARSAIAPMADAVVFSPDGTKVAFMREIDGLAQIFTVKVD | failed
MNNGRRIGLIMIITGATLWGLSGPMIQWLFQHTNVSSIDFLTIRLLLAGIFILSFLLIKKQNIFQIWKHPRHSIQLIIFSILGMLGAQYAFIETVHISNAVTATLFQFLGPVFITIYVAFEQRKFPASMQLLAIITALTGTYFIITNGSIENIVLSKEAIIFGLLTAIGFAFYTLHPASLIKECGTTLVIGWGMLIGGIALLICNRSFGWHELSQTFTTKTFSMLILIIISGTLSFLLYIGSLKYLAATETSILSSIEPLVAAIVSIAWLNESFGAYQLLGGVCIVLSVIFLTMPQKENEPAFTSEQI | failed
MNNIKRFFRYISKNAKYIDYPLVVTYLLLCLIGLVMVYSASMVAATKGSLTGGISVPGTYFYTRQLMYVIMSLVIVFFMAFFMNVKLLETIRFQKWMMIGIIILLAATLVVGSNINGSKSWINLGFMNLQASELLKIAIILYIPYMIEKKRPKVFKQPKLMTSPIILAGLCIALVLLQRDVGQTLLIMIIFVSILFYAGIGVQKSIKYGLLIIVGVVIIGSLFLIIGLVPDYLTARFSTLTNPFSQESGTGYHISNSLIAIGNGGLLGRGLGNSIMKLGYLPEPHTDFIFSIICEELGLVGGLVVICLLFFIVYRAFELANKTNSYFYKLVCVGVASYIGSQTFVNLGGISGTIPLTGVPLPFISFGGSSMISLSIALGLLLITGKQIRIEAYRKKQANKKKTHIGMTRRY | failed
MNNKIYFTPGPSELYPTVRQHMITALDEKIGVISHRSKKFEEVYKTASDNLKTLLELPSNYEVLFLASATEIWERIIQNCVEKKSFHCVNGSFSKRFYEFAGELGREAYKEEAAFGKGFYPADITVPADAEIICLTHNETSSGVSMPVEDINTFRDKNKDALIFVDAVSSLPYPKFDWTKIDSVFFSVQKCFGLPAGLGVWILNDRVIEKSKALLAKRKSIGTYHTIPSMLEKARVNQTPETPNAMNIFLLGKVTGDMLQISADGIRKQTEEKAALINTYIESSKVFSFGVEDAKLRSMTTIVANTTMLPGEINKILEPFDMAVGAGYGSKKETQIRIANFPAHSLEQVHKLVQTLKEKIG | not failed
MNNKLKTQAVEQLFQAILSLKDLDEAYDFFEDVCTINEILSLSQRFEVAKMLREHRTYLDIAEKTGASTATISRVNRSLNYGNDGYDRVFERLGMLEKESEDNK | not failed
MNNKTKGIILITISALSFALMSTFVKLSGDLPSIEKSFFRNLVSCFVAFYLVKKDNALLFGHKENRLALIGRSALGTLGIWANYYAIDRLILSDATILNKLSPFFVIIFSYLFLKEKLKPIHIICLLAAFSGVLFIVRPSGNLASNFIPAIIGLCSAAFAGGAYTFVRYLGGKEKGATIVFFFSFFSIVTTFPIMLFQFETFSLEQFVFLILAGVAASCAQFALTAAYKYAPARDISIYDYTQVIFTALIGFVLFGDIPDKISLIGYVLILLASFSIFLYNKKEASK | not failed
MNNNLQRDAIAAAIDVLNEERVIAYPTEAVFGVGCDPDSETAVMRLLELKQRPVDKGLILIAANYEQLKPYIDDTMLTDVQRETIFSRWPGPVTFVFPAPATTPRWLTGRFDSLAVRVTDHPLVVALCQAYGKPLVSTSANLSGLPPCRTVDEVRAQFGAAFPVVPGETGGRLNPSEIRDALTGELFRQG | not failed
MNNPGLFQARWNLGKLVLCNLLPLALLGFWLWPTGQALCTVFDEWLFHHLNAPLASNSTWLHIWAVASLRPFDIVVGLIMLGLLIRGDWVFKAVDVRRAFFGFLSILILMVVIRALFSKLVAVMNWQHNSPSMVLEGAVHMSDYFPGWEKTWELKDRSSQSFPGDHASVLLIWGLFMGIFSRSIGQFLIVWGLTLLFMMPRLVAGAHWGQDDYIGGVLLAVLALGWGYYTPYAARMSNFLLRLTHPLFNLLSRMPVLSRMSVVRASSLLR | failed
